Assay results from patent US20260241035A1, “FUNCTIONAL NUCLEIC ACID MOLECULE AND METHOD” (THE UNIVERSITY COURT OF THE UNIVERSITY OF EDINBURGH, priority 2022, published 2026).

system: GSC7 cells; assay: Nano-Glo Dual-Luciferase Reporter (Nanoglo DLR) assay of enhancer activity, fold change to mCMV; type: cell-based, human; conditions: expression fold change of the individual enhancer compared to mCMV
From the text: We chose an arrayed library format, with 160 bp enhancer fragments individually cloned into separate plasmids and arrayed in 96 well plates. These 160 bp were synthesized as a single pool of oligos, then randomly cloned into the plasmid and isolated. 20 bp×2 were needed for PCR amplification of the pool and so a library of 200 bp fragments was synthesized (Twist Biosciences). To meet our oligo synthesis strategy, ChIP-seq peaks expressed by GSCs were merged into a single oligo. This oligonucleotide pool was PCR-amplified (using limited cycles to reduce bias and ‘jackpot’ products meaning products which are easier to amplify will overtake the oligonucleotide pool) and cloned into the expression vector by an efficient Golden Gate reaction. 4579 individual plasmids were then randomly picked, isolated and plated as an arrayed plasmid DNA library on 96 well plates (×48). The bacterial colony picking and production of plasmid minipreps were supported by the Edinburgh Genome Foundry (S. Rosser). This library was then screened using the optimised Nanoglo DLR assay (Nano-Glo Dual-Luciferase Reporter Assay, Promega) in 384 well format. Each plate was transiently transfected together with PGK-FFLuc in a 1:10 ratio into GSC7 cells. 2 days later a Nanoglo DLR assay was performed and assayed on a plate reader.
Cells were seeded in 384 well plates using a multidrop and transfected the following day using the CyBio Felix. Two days later the experiment was terminated with a Nanoglo DLR assay and all hits with a fold change to mCMV greater than 10 were Sanger sequenced and mapped back to the genome.
Cells were seeded at the required density. The following day the transfection was carried out. For this the Plus reagent and Lipofectamine LTX (Life Technologies, 15338030) were each diluted in half the volume of Opti-MEM I Reduced-Serum Medium (further referred to as Optimem) (Life Technologies, 31985062). Following this step, the Plus reagent/Optimem premix was added to all DNA samples followed by the Lipofectamine LTX/Optimem premix. The transfection mix was incubated for 5 min at room temperature and then carefully dropped on the cells. Generally, no media change was carried out. Cells were analysed two days following transfection.
This assay consists of two steps. The transfection was carried out using a normalisation plasmid PGK-Firefly-Luciferase (Promega, E5011) that was transfected in a 1/10 ratio with the plasmid of interest. First, the Firefly Luciferase activity is measured which allows to normalise to transfection efficiency. In a second step, the activity of Nanoluc is determined which is the readout of the plasmid of interest. Cells were washed 3× with PBS and 20 μl was left in the 96 well plate after the final wash (25 μl in 384 well). Oneglo buffer was added and the plate was shaken for 5 min at 480 rpm to allow cell lysis. 20 μl cell lysate in 96 well format or 25 μl cell lysate in 384 well format was then transferred into the corresponding opaque white plate and luminescence was measured at for 0.1 s per well using the Ensight Multimode Plate Reader. For the following Nanoluc reaction in a 96 well format 2 μl cell lysate was transferred into an opaque white plate containing 40 μl PBS, and 20 μl Stopglo buffer, supplemented with substrate, was added to each well. In a 384 well format 20 μl Stopglo buffer containing substrate were added on top of the undiluted cell lysate. The plate was shaken again for 5 min at 480 rpm to quench the firefly luciferase reaction and ensure good mixing. Nanoluc activity was measured for 0.1 s per well, again using Ensight Multimode Plate Reader.
Data obtained by the Nanoluc reaction was normalised to Firefly reaction to account for well-to-well variability of transfection efficiency. Normalised data were used to calculate the fold change to the empty vector control mCMV.

| Molecule | Fold change (Median) [fold] |
| --- | --- |
| CSE012: clustered SOX dimer motif enhancer, SEQ ID NO: 40 (nucleic acid) DNA: GTAGAGAATAGATTCTGTAGGGCTTTTAACCTCCACTGTTATTCCAAGGATGGGGCTCAGCTTCCTTCTTTTCCTTTCTGACTCTGTCTATATCAAGGGTCCCGTGGGTTGTTCCTTTCCATTGTGGTCTCACTGCCCAGCTTTAAGGCACCATCCTGGCACAGTGATAGGTTTACCTTTGTCTAAAAGTGTCCATTTGCATCTCTGTGGCCTTCTTGCCTGGGTGACACCCACTTGATTAGGCATTTGCCCAGTGTGAGATCAGAGTCCCTCATTTACATTTCCCCACAATAGTGAATGGCTTACAGGCTGTTCAAATACAGTTTCTAAACAGTGAATAATTCAGCCAGAAAGCCAGCCTTTTAAGGTTTGGATTTGGGGCATTTCTGAG | 10.3 |
| ID0109: enhancer fragment, SEQ ID NO: 6 (nucleic acid) DNA: GAAATTGGATCCTGAGGAGAATGTCACCACCTCTTTGACAATAACTAGCTTTCAGAGCTGAACACAGTGAATCTGGATACTGTGTATATGTTTAAATGAGTTAGGAAATGACATCACATTATTTATTTCTTCTTTTGTGACTTAGTAAATTGACTTGGCC | 116.4 |
| ID4328: enhancer fragment, SEQ ID NO: 7 (nucleic acid) DNA: TACAATCTATTCTCCATAGTCATCAGAGTTTCTTTAAAGGCACGGTTCAGACAATGGCACCCTCTGTTCCAAACCCTCCAGGGCTTCCTATTTCACTTAGCATAAAAACCAAAGTCCTCACAATGACCGACAAGTCTTCACACAATGTGCCCCTTCATTG | 100.7 |
| CSE005: clustered SOX dimer motif enhancer, SEQ ID NO: 41 (nucleic acid) DNA: TCCCTTGGAAAGTGTTCAAATCAAAGCTACCTTTATACCACACTCCTTTGTGTCCTGATGTCCTGAATAGTGAGATTATCGGGTACACCCACCTGTTCCTGCACTTCCTTCCTGCTCAATTTAAATAAACAATGAGCTGTTTTTCTTCTTGACAAAGAGCCAGTCTATACAACAGCAGCAGGAAGATTACTTTCTATCTGTATGCAAACAGATACATAGCTGAGTTCTCTCCAATCCCCGGGAAAAGACCCTTTTAACTAAATGACTTATGCTTCT | 11.5 |
| CSE034: clustered SOX dimer motif enhancer, SEQ ID NO: 42 (nucleic acid) DNA: GCCATAATTTGAACCTCGGAGTGCCCCACTGACAGCCAACGACACCAGAGGGTCCCTTTGTATGTAAGGATTGCATGACTCCAGTTGAATGACCCAAGCCGGGGACAAACAGGAAAGAACCCAGCAGCTCTGGAGGCCACTTGAGCTGACTGTCAAATGCTCTGGGCTGATTAACGACTACGAACTTCAGGGAAGACAAGTGTGCTTTGATGCCACAGAGCTATCCTGGGCCTGTACAGGCCCGTTTCTGCTCTGAATGAGGAAGCTGTACTTTGCAGGCACCCGGCAGAACAAGAATAGGGCCTAAGATACCTGAATGAAGGGCACAGAGGAAGTACAAAATACAGTCATTGTTGGAGCTAGAAGCTGGTGCCAGGCTACGAGGGGGCCCAGTGGCCAAGCATTATG | 14.3 |
| CSE194: clustered SOX dimer motif enhancer, SEQ ID NO: 37 (nucleic acid) DNA: ATCTCATATATGTGTATATGTATTTATGATTTACATATATACAGACGTATCACACACTCCGAATAGAATACAGATTTCCTTCAATGACAGCAACAACTCAATGACCCGCCCACTAGCATGGCTAAAATACTAAACCACTAGATAGCTTTATGTGAACTTGAGCTTGATTGTTTCTTAGCTCTGCTTCAGAACCTCATGATCATGTGCATGCAATTTCTACAGAAGCGGAAACGTAGATGCTGTGGGTCAGTGAGCATTCCTTTCCAGGGTGCTTCTGAGATGAAGCCCCACGATTAACACAGGGCCCTTAATGATGGGCGGGGGACTAAGCATTCCAAGATTGGCCTGGATTCCTGCCAGAAGGGAGAGAAAGGGGTCTTTGTATGTGGACATCTGAAGGGCGGGCATAAACATGTTAGTTGATACTTAACACCCAAAACCAGTGCCAAAACCGTTAGCTCCCCTCAATAGCCTACTCTGGTTTCAACTGTCCGCGACAATGGAGCAGCCACCTCAATATACAAAACTTGCTCTTTAAACATCCTCAGAGGAATTCCCAAAATAGCAGCTGTTAGAAGCAAACAGACTCTAATTCATTGACATATGCAGACCTTTTAATGTTTTTCTGGTGACGTTTACATTTTTTTTTGTACCTACGCCATCTATGCATTTTTAATAATTACCTTGTAGATTACGTATGCAATCCCTCCAGGCACTTGAAGAAGGAGCCCCGGGATTCATCATCAGATGAAATTGTTAGTTTTTACGGCAAGAGGCCCAGCTAATTTATGCGGGGAATTTTTCAGACGTTTTTCCTCTGGGCTCCCTTCCCTGCTGTCCTCGCGCCTTTCTTCCTCAGTACATTAAGAGATTCTGATGTGCCTGCAGCA | 14.54 |
| CSE208: clustered SOX dimer motif enhancer, SEQ ID NO: 38 (nucleic acid) DNA: AGATAAAGCCAGAAATAAAAGGGAAAGAAACAGTTATATGATTTTGGTGGGAATTTGCAGAAATACAGGCTGAAGCTGAAGTCTTCCATCAGGTGAGGTTTTTTCCATTGATCTCATCTCTCGGGCTCAGCTCTTTTATCTCCAGCGCATTTTGGATGTGGCTTCTCTTTCCACCTGCTGGGCCTTTAGATAGAGTACTTCCTTTTGTTTCAAGGTAGCATTTAACTGAGTCTGGAAAAACCATCATTAAGGGAAAATAAAGCTGAAAGATGAATTGAAAACTATGTAAAAGGGCCCTTTCAGGCTGCCGGAGAGATTGCCTTTCCAGCCTAATGAGCCTGTGCTGCCTCTGATTCAGATGGTGCAAGGACAGGAGAAAAGAATGGAGTTTTGTGCACTGCGATTTTCCAAAGCACATAATGCTTAGTCATTTGGGGTGTTAGGAAAGAGAGAAAGTCGGAGCGGAGTGTGTGGTGAAGTGAGAGAAAGAAAGAAGGCTGAATTTTCGTTAAGCTGCTCAAATGCCTGCTTTAACAAAAGTCTGCCAGGGCTAGAGGTGATTAGCCATCAGTGCTGCTGCTGTTTTTGCTGTCG | 45.5 |
| CSE078: clustered SOX dimer motif enhancer, SEQ ID NO: 43 (nucleic acid) DNA: TGTCGGGCAGCCAAGACCTGTCAGGGACAAGAGTGCTGTGAGCTGCGGGCTGGTGGGTGGAAGGAGAGAGGCCCCTGGTGCTCCTGCCAAGCCAAGGAATGTGTCATTGCTGTGCTGTGCCTTCAGCCTGGCATTTGGGAACAAAGAGGTACTTTGTATGGATAACATAGACCAGGTTGTTGGGGAAGGGATCAGAGATGGGGGTAGACCCATTTTTAAAAATCTGCTCATGTCCCAGGCAAGTTTTTTTGGCAGGGATTGCAGTTGGGCTATTACAAAGAGCTGCTGTACACGAGGGGTATGTCTACTACTGTCAAATTACAGCAGCAATTATCTTGGGCACTG | 10 |
| CSE222: clustered SOX dimer motif enhancer, SEQ ID NO: 39 (nucleic acid) DNA: CTCTTTGGGTCTAGGTATCATTTTGGGATCACATCATGATAACTCTATGTGTGTGTGCTGGGAGGGCAAAGTTGCAAAGCAATTACTCAGCAATGCTGAAGAAAGAAGCAATTACTGGAACACATTTTAGCCCCGCTTGTCAGAGTGACTTTCACTGGGGCACAAGGGAAGCATTCACTTAGGCAGTATCCCTTTCAGAGGCTTAATTTAGTTTTTTCTTCCCTTTAATTGTGTGATTCCAGTATTTTAGCTACAATCCCTAGGCTGTAGGAACCTTTAAACACTTCTTTTTATAAAAGAAATGCATGGGCTTTTGAAGAATAAACAGGGGGCTGCATAATTTATAGGAAAATGGCACCATGGACTTTTCCTTCACAAAGAACATTGGGGTTACATTGGAACAAGCCAAATATGTTTTTAATGAATAGTCAGTAATCAGCAGCAGCTACAGTAAGTGCTTGAAATTTTTCTTTTATGTGCTATGAGTCCACAAACTAAGCATCTGATTCTGATTGCAGCCATGA | 145.9 |
